Source: patent publication US20080050387A1, “Non-Androgen Dependent Roles for Androgen Receptor and Non-Androgen Related Inhibitors of Androgen Receptor” (priority 2003, published 2008)
Entries after “also recorded” stand apart in the source; their conditions may differ. Read-outs that look alike come from different tables or passages of the source.

Columns and labels:
GR = target: T1, GR (Homo sapiens, UniProt P04150); test: GR transactivation reporter gene assay in H1299 cells with ARA67; format: cell-based; settings: 500 ng pSG5-ARA67, MMTV-Luc, cognate ligand
T1 construct: host or cells: H1299
T1 sequence (P04150 1-777): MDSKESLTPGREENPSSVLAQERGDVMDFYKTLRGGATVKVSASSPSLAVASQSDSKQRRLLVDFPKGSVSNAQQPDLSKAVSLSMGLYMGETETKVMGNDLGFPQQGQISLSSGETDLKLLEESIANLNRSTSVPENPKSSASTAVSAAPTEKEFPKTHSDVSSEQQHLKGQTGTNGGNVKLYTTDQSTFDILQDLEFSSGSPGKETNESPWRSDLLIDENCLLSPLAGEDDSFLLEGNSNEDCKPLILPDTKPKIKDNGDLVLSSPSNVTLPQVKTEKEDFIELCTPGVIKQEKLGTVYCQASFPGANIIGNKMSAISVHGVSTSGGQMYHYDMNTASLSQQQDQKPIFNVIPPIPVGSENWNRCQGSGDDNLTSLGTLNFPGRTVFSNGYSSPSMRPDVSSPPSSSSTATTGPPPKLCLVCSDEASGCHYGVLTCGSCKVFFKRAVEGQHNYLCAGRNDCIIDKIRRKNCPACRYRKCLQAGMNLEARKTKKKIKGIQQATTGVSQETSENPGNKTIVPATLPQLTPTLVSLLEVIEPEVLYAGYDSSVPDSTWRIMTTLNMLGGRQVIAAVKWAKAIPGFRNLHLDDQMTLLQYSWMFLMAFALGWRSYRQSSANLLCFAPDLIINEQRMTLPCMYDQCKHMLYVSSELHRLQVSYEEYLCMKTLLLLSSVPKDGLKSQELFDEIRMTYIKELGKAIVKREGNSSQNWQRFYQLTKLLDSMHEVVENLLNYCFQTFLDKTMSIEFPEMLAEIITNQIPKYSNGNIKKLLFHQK
Experimental: (§1) H1299 and COS-1 cells were maintained in Dulbecco's modified Eagle's medium (DMEM) (Life Technologies, Inc.) supplemented with 10% heat inactivated fetal bovine serum (FBS). LNCap cells were maintained in RPMI 1640 supplemented with […]. All media contain 100 units penicillin, 100 μg/ml streptomycin and 2 mM L-glutamine. Cells were seeded to a density of 50-60% confluency for transfection. In transfections where H1299 and COS-1 cells were used, the calcium phosphate precipitation method was used as described (Pan H J, et al. 1999. Endocrine 11:321-327) unless otherwise noted. […] In other reporter gene assays, where ligand treatment was required, cell culture media were changed to DMEM containing 10% charcoal-dextran-stripped FBS (CD-FBS) 2 h before transfection. After 16-18 h transfection, cells were treated with medium containing either vehicle or ligands for another 20-24 h and then cells were harvested. With LNCap cells transfection, the cells were treated with fresh RPMI 1640 containing 10% CD-FBS before transfection with SuperFect performed according to the manufacturer's protocol (Qiagen). After transfection, cells were allowed to recover in fresh RPMI 1640 containing 10% CD-FBS for 8-12 h, and then treated with either vehicle or ligands for another 20-24 h before harvesting. Each experiment was repeated at least three times.

[1] = tested on: PSA expression in LNCaP cells; test: DHT induced PSA expression in LNCaP cells transfected with ARA67 (Western blot); format: cell-based, human; settings: pSG5-ARA67 transfected
Experimental: as §1, with “times. […]” for “times.”

ER = ER transactivation reporter gene assay in H1299 cells with ARA67; format: cell-based; settings: 500 ng pSG5-ARA67, ERE-Luc, cognate ligand
Experimental: as §1

AR (ARN, ARDBD, ARLBD) = test: GST pull-down assay ARA67 / AR; format: binding, human
Experimental: GST-ARN, GST-ARA67 fusion proteins, and GST control protein were expressed in BL21 (DE3)pLysS bacteria strain (Stratagene) and purified with glutathione-Sepharose beads as instructed by the manufacturer (Amersham Pharmacia). In vitro [^35S]methionine-labeled AR, ARN, AR DBD, AR LBD and ARA67 proteins were generated using TNT-coupled Reticulocyte Lysate Systems (Promega). For in vitro interaction, mixtures of glutathione beads bound GST fusion proteins and 5 μl [^35S]methionine-labeled input proteins in 100 μl interaction buffer (20 mM Tris/pH8.0, 60 mM NaCl, 6 mM MgCl2, 1 mM EDTA, 0.05% Nonidet P-40, 1 mM DTT, 8% glycerol, 1 mM PMSF) were incubated in the presence or absence of 10 μM dihydrotestosterone (DHT) on a rotating disk at 4° C. for 2 h. After washing with NETN buffer (20 mM Tris/pH8.0, 100 mM NaCl, 6 mM MgCl2, 1 mM EDTA, 0.5% Nonidet P-40, 1 mM DTT, 8% glycerol, 1 mM PMSF) four times, the bound proteins were separated on 8-13% SDS-PAGE and visualized by autoradiography.

microtubules = settings: in the presence of Mg-ATP; cited from earlier work
AR N/C interaction = test: AR N/C interaction, mammalian two-hybrid assay in COS-1 cells; format: cell-based, human; settings: 10 nM DHT
Chain of AR N/C interaction (P10275 552-919 limits assumed): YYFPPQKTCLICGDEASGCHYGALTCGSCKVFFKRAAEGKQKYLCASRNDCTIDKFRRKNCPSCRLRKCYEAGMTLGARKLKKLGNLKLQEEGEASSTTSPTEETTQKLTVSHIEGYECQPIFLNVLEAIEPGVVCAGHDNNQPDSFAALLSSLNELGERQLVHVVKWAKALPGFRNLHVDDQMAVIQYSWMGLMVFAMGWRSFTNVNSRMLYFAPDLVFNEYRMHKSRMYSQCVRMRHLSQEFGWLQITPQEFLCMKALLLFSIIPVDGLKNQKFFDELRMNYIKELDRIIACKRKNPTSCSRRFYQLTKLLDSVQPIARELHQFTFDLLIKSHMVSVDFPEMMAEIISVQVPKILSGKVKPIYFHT
Chain of AR N/C interaction (P10275 1-559 partner limits assumed): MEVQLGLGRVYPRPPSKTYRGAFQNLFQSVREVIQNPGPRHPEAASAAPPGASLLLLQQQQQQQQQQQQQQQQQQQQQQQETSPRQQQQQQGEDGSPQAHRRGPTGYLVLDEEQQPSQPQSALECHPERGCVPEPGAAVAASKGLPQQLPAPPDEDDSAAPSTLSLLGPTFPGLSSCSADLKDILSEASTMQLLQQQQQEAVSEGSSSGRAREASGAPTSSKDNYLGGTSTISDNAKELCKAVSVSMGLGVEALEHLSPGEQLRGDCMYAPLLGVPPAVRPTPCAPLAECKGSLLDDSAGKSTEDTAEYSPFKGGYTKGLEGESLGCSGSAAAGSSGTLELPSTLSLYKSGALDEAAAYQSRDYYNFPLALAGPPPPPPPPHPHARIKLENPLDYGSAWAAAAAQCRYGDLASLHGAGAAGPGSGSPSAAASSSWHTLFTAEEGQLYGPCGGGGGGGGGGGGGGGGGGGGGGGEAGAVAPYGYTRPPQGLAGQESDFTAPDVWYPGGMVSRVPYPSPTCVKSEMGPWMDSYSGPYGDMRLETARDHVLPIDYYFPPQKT
Experimental: as §1

B1: ARA67: AR N-terminal interacting protein of 585 amino acids (SEQ ID NO:1), matches PAT1; functions as a repressor of AR (protein)
chain: MAAVELEWIPETLYNTAISAVVDNYIRSRRDIRSLPENIQFDVYYKLYQQGRLCQLGSEFCELEVFAKVLRALDKRHLLHHCFQALMDHGVKVASVLAYSFSRRCSYIAESDAAVKEKAIQVGFVLGGFLSDAGWYSDAEKVFLSCLQLCTLHDEMLHWFRAVECCVRLLHVRNGNCKYHLGEETFKLAQTYMDKLSKHGQQANKAALYGELCALLFAKSHYDEAYKWCIEAMKEITAGLPVKVVVDVLRQASKACVVKREFKKAEQLIKHAVYLARDHFGSKHPKYSDTLLDYGFYLLNVDNICQSVAIYQAALDIRQSVFGGKNIHVATAHEDLAYSSYVHQYSSGKFDNALFHAERAIGIITHILPEDHLLLASSKRVKALILEEIAIDCHNKETEQRLLQEAHDLHLSSLQLAKKAFGEFNVQTAKHYGNLGRLYQSMRKFKEAEEMHIKAIQIKEQLLGQEDYEVALSVGHLASLYNYDMNQYENAEKLYLRSIAIGKKLFGEGYSGLEYDYRGLIKLYNSIGNYEKVFEYHNVLSNWNRLRDRQYSVTDALEDVSTSPQSTEEVVQSFLISQNVEGPSC
suppression on GR (GR): 20%
DHT induced PSA expression [1]: decreased
effect on ER transactivation (ER): nearly unaffected; also recorded: little effect
interaction with AR LBD (AR (ARN, ARDBD, ARLBD)): moderately
interaction with ARDBD (AR (ARN, ARDBD, ARLBD)): very weakly
interaction with ARN (AR (ARN, ARDBD, ARLBD)): most strongly
interaction with GST-ARN fragment ARN1-140 (AR (ARN, ARDBD, ARLBD); [35S]methionine-labeled ARA67): positive interaction
interaction with ARN (AR (ARN, ARDBD, ARLBD); listed as full length ARA67): strong interaction
interaction with AR, DHT dependence (AR (ARN, ARDBD, ARLBD); presence and absence of 10 μM DHT): DHT independent manner
enhancement of microtubule binding (microtubules): 5-10 fold
DHT promoted AR N/C interaction (AR N/C interaction): slightly enhanced
